Where a chain is given by its changes, count along the chain named. Names may count otherwise. Each block holds one binder with its values, some of them ahead of it.
Key:
HOTag6-G10-Ub [1] = test: NMR titration
M1-linked Ub4 [2] = molecular target: M1-linked Ub4 (UniProt P0CG48); test: NMR titration
HOTag6-G10-Ub [3] = test: fluorescence polarisation
ubiquitin (Ub) = ubiquitin (Ub) (UniProt P0CG48 1-76); test: fluorescence polarisation
M1-linked Ub4 [4] = molecular target: M1-linked Ub4 (UniProt P0CG48); test: fluorescence polarisation

M1-linked Ub4, sequence (P0CG48 1-304): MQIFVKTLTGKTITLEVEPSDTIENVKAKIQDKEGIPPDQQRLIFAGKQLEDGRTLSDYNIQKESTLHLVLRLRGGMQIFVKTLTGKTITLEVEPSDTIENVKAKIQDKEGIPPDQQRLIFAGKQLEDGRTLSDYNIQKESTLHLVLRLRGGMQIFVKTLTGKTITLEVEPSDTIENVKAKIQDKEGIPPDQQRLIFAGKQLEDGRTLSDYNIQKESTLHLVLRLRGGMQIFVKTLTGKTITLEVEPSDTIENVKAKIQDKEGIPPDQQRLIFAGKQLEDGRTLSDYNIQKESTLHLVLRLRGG

Kd (HOTag6-G10-Ub [1]): 8.8 µM | Kd (M1-linked Ub4 [2]): 12.8 µM
B1: UBQLN2 450-624 (domain or fragment)
chain: RAMQALMQIQQGLQTLATEAPGLIPSFTPGVGVGVLGTAIGPVGPVTPIGPIGPIVPFTPIGPIGPIGPTGPAAPPGSTGSGGPTGPTVSSAAPSETTSPTSESGPNQQFIQQMVQALAGANAPQLPNPEVRFQQQLEQLNAMGFLNREANLQALIATGGDINAAIERLLGSQPS

Kd (HOTag6-G10-Ub [3]): 7 µM | Kd (ubiquitin (Ub)): 3.4 µM | Kd (M1-linked Ub4 [4]): 5.1 µM
B2: fluorescently-labeled UBQLN2 450-624 (S624C, Alexa Fluor 488) (domain or fragment)
chain: B1 chain with S175C
modifications: Alexa Fluor 488 C5 Maleimide label (S624C mutation)

Source: doi:10.1101/2021.11.12.467822 (bioRxiv, 2021)
